Experimental findings from patent publication US7494647 (Chugai, dated 2009) are described below.

The EC50 (read off the curve) is the concentration needed to bring the measured effect to its halfway point. A low value points to an effect from little substance. Broadly, the Kd is the constant that tells how readily two partners part at equilibrium. A low value points to higher affinity. In general, koff refers to the rate constant with which the complex falls apart. Low values mean a long-lived complex, high ones a short-lived complex. One may read the kon as the rate constant with which the complex forms.

First the molecules themselves.
B1: H chain humanized version i/L chain humanized version b antibody (antibody, IgG4, V domains shown)
VH: QVQLLESGAVLARPGTSVKISCKASGFNIKDYYMHWVKQRPGQGLEWIGGNDPANGHSMYDPKFQGRVTITADTSTSTAYMELRSLRSDDTAVYYCARDSGYAMDYWGQGTLVTVSS
VL: DIQMTQSPSSLSASVGDRVTITCKASQDIKSFLSWYQQKPGKAPKLLIYYATSLADGVPSRFSGSGSGTDYTLTISSLQPEDFATYYCLQHGESPYTFGGGTKVEIK
B2: H chain humanized version i/L chain humanized version b2 antibody (antibody, IgG4, V domains shown)
VH: QVQLLESGAVLARPGTSVKISCKASGFNIKDYYMHWVKQRPGQGLEWIGGNDPANGHSMYDPKFQGRVTITADTSTSTAYMELRSLRSDDTAVYYCARDSGYAMDYWGQGTLVTVSS
VL: DIQMTQSPSSLSASVGDRVTITCKASQDIKSFLSWYQQKPEKAPKSLIYYATSLADGVPSRFSGSGSGTDYTLTISSLQPEDFATYYCLQHGESPYTFGGGTKVEIK
notes: also called i-b2; ib2
B3: H chain humanized version b/L chain humanized version a antibody (antibody, IgG4, V domains shown)
VH: QVQLLESGAVLARPGTSVKISCKASGFNIKDYYMHWVKQRPGQGLEWIGGNDPANGHSMYDPKFQGRVTITADTSTNTAYMELSSLRSEDTAIYYCARDSGYAMDYWGQGTLVTVSS
VL: DIQMTQSPSSLSASVGDRVTITCKASQDIKSFLSWYQQKPGKAPKLLIYYATSLADGVPSRFSGSGSGTDFTLTISSLQPEDFATYYCLQHGESPYTFGGGTKVEIK
notes: also called b-a
B4: H chain humanized version i/L chain chimeric antibody (antibody, IgG4, V domains shown)
VH: QVQLLESGAVLARPGTSVKISCKASGFNIKDYYMHWVKQRPGQGLEWIGGNDPANGHSMYDPKFQGRVTITADTSTSTAYMELRSLRSDDTAVYYCARDSGYAMDYWGQGTLVTVSS
VL: DIKMTQSPSSMYASLGERVTITCKASQDIKSFLSWYQQKPWKSPKTLIYYATSLADGVPSRFSGSGSGQDYSLTINNLESDDTATYYCLQHGESPYTFGGGTKLEIK
notes: L chain V region is that of mouse ATR-5; also called i-ch
B5: H chain humanized version b/L chain chimeric antibody (antibody, IgG4, V domains shown)
VH: QVQLLESGAVLARPGTSVKISCKASGFNIKDYYMHWVKQRPGQGLEWIGGNDPANGHSMYDPKFQGRVTITADTSTNTAYMELSSLRSEDTAIYYCARDSGYAMDYWGQGTLVTVSS
VL: DIKMTQSPSSMYASLGERVTITCKASQDIKSFLSWYQQKPWKSPKTLIYYATSLADGVPSRFSGSGSGQDYSLTINNLESDDTATYYCLQHGESPYTFGGGTKLEIK
notes: L chain V region is that of mouse ATR-5; also called b-ch
B6: H chain humanized version i/L chain humanized version b1 antibody (antibody, IgG4, V domains shown)
VH: QVQLLESGAVLARPGTSVKISCKASGFNIKDYYMHWVKQRPGQGLEWIGGNDPANGHSMYDPKFQGRVTITADTSTSTAYMELRSLRSDDTAVYYCARDSGYAMDYWGQGTLVTVSS
VL: DIQMTQSPSSLSASVGDRVTITCKASQDIKSFLSWFQQKPGKSPKTLIYYATSLADGVPSRFSGSGSGTDYTLTISSLQPEDFATYYCLQHGESPYTFGGGTKVEIK
notes: also called i-b1
B7: H chain humanized version g/L chain humanized version b antibody (antibody, IgG4, V domains shown)
VH: QVQLLESGAVLARPGTSVKISCKASGFNIKDYYMHWVKQRPGQGLEWIGGNDPANGHSMYDPKFQGKATLTADESSSTAYMQLSSLRSEDSAVYSCARDSGYAMDYWGQGTLVTVSS
VL: DIQMTQSPSSLSASVGDRVTITCKASQDIKSFLSWYQQKPGKAPKLLIYYATSLADGVPSRFSGSGSGTDYTLTISSLQPEDFATYYCLQHGESPYTFGGGTKVEIK
notes: also called g-b
B8: H chain humanized version d/L chain chimeric antibody (antibody, IgG4, V domains shown)
VH: QVQLLESGAVLARPGTSVKISCKASGFNIKDYYMHWVKQRPGQGLEWIGGNDPANGHSMYDPKFQGRVTITADESTSTAYMELSSLRSEDSAVYFCARDSGYAMDYWGQGTLVTVSS
VL: DIKMTQSPSSMYASLGERVTITCKASQDIKSFLSWYQQKPWKSPKTLIYYATSLADGVPSRFSGSGSGQDYSLTINNLESDDTATYYCLQHGESPYTFGGGTKLEIK
notes: L chain V region is that of mouse ATR-5; also called d-ch
B9: H chain humanized version j/L chain humanized version b antibody (antibody, IgG4, V domains shown)
VH: QVQLLESGAVLARPGTSVKISCKASGFNIKDYYMHWVKQRPGQGLEWIGGNDPANGHSMYDPKFQGRVTFTADTSANTAYMELRSLRSADTAVYYCARDSGYAMDYWGQGTLVTVSS
VL: DIQMTQSPSSLSASVGDRVTITCKASQDIKSFLSWYQQKPGKAPKLLIYYATSLADGVPSRFSGSGSGTDYTLTISSLQPEDFATYYCLQHGESPYTFGGGTKVEIK
notes: also called j-b
B10: H chain chimeric/L chain humanized version b2 antibody (antibody, IgG4, V domains shown)
VH: EVQLQQSGTNLVRPGALVKLSCKGSGFNIKDYYMHWVKQRPEQGLEWIGGNDPANGHSMYDPKFQGKASITADTSSNTAYLQLSSLTSEDTAVYFCARDSGYAMDYWGQGTSVTVSS
VL: DIQMTQSPSSLSASVGDRVTITCKASQDIKSFLSWYQQKPEKAPKSLIYYATSLADGVPSRFSGSGSGTDYTLTISSLQPEDFATYYCLQHGESPYTFGGGTKVEIK
notes: H chain V region is that of mouse ATR-5; also called ch-b2
B11: H chain humanized version e/L chain chimeric antibody (antibody, IgG4, V domains shown)
VH: QVQLLESGAVLARPGTSVKISCKASGFNIKDYYMHWVKQRPGQGLEWIGGNDPANGHSMYDPKFQGRVSITADESTKIAYMELNSLRSEDTAVYFCARDSGYAMDYWGQGTLVTVSS
VL: DIKMTQSPSSMYASLGERVTITCKASQDIKSFLSWYQQKPWKSPKTLIYYATSLADGVPSRFSGSGSGQDYSLTINNLESDDTATYYCLQHGESPYTFGGGTKLEIK
notes: L chain V region is that of mouse ATR-5; also called e-ch
B12: H chain chimeric/L chain humanized version b1 antibody (antibody, IgG4, V domains shown)
VH: EVQLQQSGTNLVRPGALVKLSCKGSGFNIKDYYMHWVKQRPEQGLEWIGGNDPANGHSMYDPKFQGKASITADTSSNTAYLQLSSLTSEDTAVYFCARDSGYAMDYWGQGTSVTVSS
VL: DIQMTQSPSSLSASVGDRVTITCKASQDIKSFLSWFQQKPGKSPKTLIYYATSLADGVPSRFSGSGSGTDYTLTISSLQPEDFATYYCLQHGESPYTFGGGTKVEIK
notes: H chain V region is that of mouse ATR-5; also called ch-b1
B13: H chain humanized version j/L chain chimeric antibody (antibody, IgG4, V domains shown)
VH: QVQLLESGAVLARPGTSVKISCKASGFNIKDYYMHWVKQRPGQGLEWIGGNDPANGHSMYDPKFQGRVTFTADTSANTAYMELRSLRSADTAVYYCARDSGYAMDYWGQGTLVTVSS
VL: DIKMTQSPSSMYASLGERVTITCKASQDIKSFLSWYQQKPWKSPKTLIYYATSLADGVPSRFSGSGSGQDYSLTINNLESDDTATYYCLQHGESPYTFGGGTKLEIK
notes: L chain V region is that of mouse ATR-5; also called j-ch
B14: H chain humanized version d/L chain humanized version b antibody (antibody, IgG4, V domains shown)
VH: QVQLLESGAVLARPGTSVKISCKASGFNIKDYYMHWVKQRPGQGLEWIGGNDPANGHSMYDPKFQGRVTITADESTSTAYMELSSLRSEDSAVYFCARDSGYAMDYWGQGTLVTVSS
VL: DIQMTQSPSSLSASVGDRVTITCKASQDIKSFLSWYQQKPGKAPKLLIYYATSLADGVPSRFSGSGSGTDYTLTISSLQPEDFATYYCLQHGESPYTFGGGTKVEIK
notes: also called d-b
B15: H chain humanized version c/L chain chimeric antibody (antibody, IgG4, V domains shown)
VH: QVQLLESGAVLARPGTSVKISCKASGFNIKDYYMHWVKQRPGQGLEWIGGNDPANGHSMYDPKFQGRVTMLVDTSKNQFSLRLSSVTAADTAVYYCARDSGYAMDYWGQGTLVTVSS
VL: DIKMTQSPSSMYASLGERVTITCKASQDIKSFLSWYQQKPWKSPKTLIYYATSLADGVPSRFSGSGSGQDYSLTINNLESDDTATYYCLQHGESPYTFGGGTKLEIK
notes: L chain V region is that of mouse ATR-5; also called c-ch

T1 sequence (P13726 33-295): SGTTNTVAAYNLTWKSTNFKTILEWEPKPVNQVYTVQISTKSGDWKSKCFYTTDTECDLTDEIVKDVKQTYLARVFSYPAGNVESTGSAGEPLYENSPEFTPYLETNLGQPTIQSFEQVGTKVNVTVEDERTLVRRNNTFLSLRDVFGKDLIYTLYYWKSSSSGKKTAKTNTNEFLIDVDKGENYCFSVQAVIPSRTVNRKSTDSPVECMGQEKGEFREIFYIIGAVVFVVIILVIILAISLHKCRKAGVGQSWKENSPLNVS

One experiment deals with TF/Factor VIIa complex (human, UniProt P13726 33-295; P08709 61-466). As to the kind of experiment: cell-based or functional assay.
Chain of TF/Factor VIIa complex (P13726 33-295 limits assumed, chain 1 of 2): as the sequence (P13726 33-295) above
Chain of TF/Factor VIIa complex (P08709 61-466 limits assumed, chain 2 of 2): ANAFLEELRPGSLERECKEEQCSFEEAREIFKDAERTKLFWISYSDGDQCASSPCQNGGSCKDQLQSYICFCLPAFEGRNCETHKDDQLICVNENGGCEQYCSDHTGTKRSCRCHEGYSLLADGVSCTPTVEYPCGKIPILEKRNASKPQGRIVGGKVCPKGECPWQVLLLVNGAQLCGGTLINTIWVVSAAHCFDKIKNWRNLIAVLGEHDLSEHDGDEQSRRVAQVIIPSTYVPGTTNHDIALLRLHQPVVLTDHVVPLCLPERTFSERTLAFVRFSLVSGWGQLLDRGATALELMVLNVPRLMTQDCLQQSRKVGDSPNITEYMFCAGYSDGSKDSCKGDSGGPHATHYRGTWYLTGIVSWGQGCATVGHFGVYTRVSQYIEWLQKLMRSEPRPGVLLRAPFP
Regarding B1, the “IC50 (read off the curve)” value was around 0.1 µg/mL.
On the same count and under the same terms, for B2 the value was around 0.06 µg/mL.

Another experiment addresses T1, human tissue factor (TF) on human bladder carcinoma cells J82 (human, UniProt P13726 33-295).
T1 construct: whole, on cells; also called the antigen; J82 cells
The experiment in a line: cell ELISA on paraformaldehyde-fixed J82 cells; AP-conjugated goat anti-human IgGγ; absorbance 405/655 nm. The method, then: Cell ELISA plates for measurement of antigen binding were prepared as follows. Cells used were human bladder carcinoma cells J82 (ATCC HTB-1). To 60 wells of a 96-well cell culture plate, 1 ×10^5 J82 cells were inoculated. This was cultured (RPMI1640 medium containing 10% fetal bovine serum (GIBCO)) for one day in a CO_2 incubator to allow the cells to be attached thereto. After discarding the culture liquid, each well was washed twice with 300 μl PBS. 100 μl of PBS containing 4% paraformaldehyde (hereinafter referred to as PFA/PBS) was added to each well, and placed on ice for 10 minutes to immobilize the cells.
PFA/PBS was discarded, and each well was washed twice with 300 μl of PBS, and then blocked with 250 μl of DB. The culture supernatant or purified antibody was serially diluted with DB, 100 μl of which was added to each well. After incubating at room temperature for 2 hours followed by washing with RB, 100 μl of alkaline phosphatase-conjugated goat anti-human IgGγ antibody (BioSource) diluted 1000-fold with DB was added. After incubating for 1 hour followed by washing with RB, the substrate solution was added, and then absorbance at 405/655 nm was measured using the Microplate Reader (Bio-Rad).
(In general: ELISA stands for enzyme-linked immunosorbent assay.)
As for B3, the “EC50 (read off the curve)” value was around 0.1 µg/mL.
With B4, the binding result is recorded as “binds”.
As for B5, the “EC50 (read off the curve)” value is around 0.1 µg/mL.
Consider B6, for which the binding result is reported as “binds”.
Consider B7, for which the “EC50 (read off the curve)” value was around 0.04 µg/mL.
As for B8, the “EC50 (read off the curve)” value is around 0.07 µg/mL.
B9: the binding result is reported as “binds”.
For B10, the binding result is “binds”.
Take B11: the “EC50 (read off the curve)” value was around 0.05 µg/mL.
Turning to B12, the binding result is on record as “binds”.
As to B13, the binding result was “binds”.
On to B14, for which the binding result was “binds”.
As to B15, the “EC50 (read off the curve)” value is around 0.09 µg/mL.

The next experiment deals with T2, soluble human TF (human TF 1-219 with the FLAG peptide linked to the C-terminal) (human, UniProt P13726 33-251).
T2 construct: Entry is the whole soluble construct (TF 1-219 followed by FLAG peptide M2); also called soluble TF; shTF
T2 sequence (P13726 other isoform, or with tags, fused parts or gaps limits assumed): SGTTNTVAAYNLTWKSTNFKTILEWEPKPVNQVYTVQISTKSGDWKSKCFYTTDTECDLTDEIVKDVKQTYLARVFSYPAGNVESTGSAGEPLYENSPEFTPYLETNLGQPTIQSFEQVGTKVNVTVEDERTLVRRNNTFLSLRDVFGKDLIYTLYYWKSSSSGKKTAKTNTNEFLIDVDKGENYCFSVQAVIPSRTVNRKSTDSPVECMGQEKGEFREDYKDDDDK
The experiment in a line: BIACORE; antibody captured on Protein G chip, soluble TF as analyte; mean ± SD, n = 3. The method, then: Kinetic analysis of the antigen-antibody reaction was carried out using BIACORE. The recombinant Protein G was immobilized on a sensor chip, to which the antibody was coupled. The purified recombinant TF (a soluble TF in which the FLAG peptide was tagged at 1-219) was used as the antigen, and the-soluble TF prepared at various concentrations were used as analytes. From the sensorgram obtained, kinetic parameters (dissociation rate constants kdiss, and binding rate constants kass) were calculated.
As the running buffer, the HBS-EP buffer was used. Ten μl Of […] antibody solution was injected at a flow rate of 20 μl/min to immobilize antibody. The antibody was diluted with the HBS-EP buffer. Forty μl Of the soluble human TF solution at various concentrations were injected at a flow rate of 30 μl/min thereto. In the analysis, 80 seconds for injection was set as the binding phase and then changed to the HBS-EP buffer to set the dissociation phase of 120 seconds. After the dissociation phase was over, 10 μl of 20 mM hydrochloric acid was injected to reconstitute the sensor chip. The binding, dissociation, and reconstitution were set as one cycle, and the sensorgram was obtained for each antibody. The soluble human TF solution was prepared at concentrations of 250 nM, 125 nM, 62.5 nM, 31.3 nM, 15.6 nM, 7.81 nM, and 3.91 nM using the HBS-EP buffer. As the blank, the sensorgram obtained by injecting the HBS-EP buffer used for dilution was used.
The data file of interest was read in, and the comparison of reaction patterns by superscription was made using as the baseline the sensorgram of the HBS-EP buffer. Furthermore, using an analytical application software "BIAevaluation 2.1" (Pharmacia) exclusively for BIACORE that calculates kinetic parameters (binding rate constants kass and dissociation rate constants kdiss) by curve-fitting, kinetic analysis of interaction was performed. In order to determine the binding rate constants kass, the analysis model type 4 was used (BIAevaluation 2.1 Software Hand book, A1-A5). Based on the values calculated from each flow cell, kinetic parameters for each antibody were obtained.
Background: SPR reads the build-up and loss of mass on a sensor chip optically.
Molecule B1 came in with a Kd of 1.39 nM, a koff of 0.000649 s⁻¹ and a kon of 467000 M⁻¹ s⁻¹.
As for B2, the Kd is 1.17 nM, the koff worked out at 0.000635 s⁻¹ and the kon was 544000 M⁻¹ s⁻¹.
